Results: paper PMC6488296

Experiments:
[1] = molecular target: GFP-PIF^S-TCR (moxGFP-noF-PIF^S-TCRβ) (Aequorea victoria | A. thaliana | human) (UniProt Q8L5W7); experiment: flow cytometry on cells + other: calcium influx (Indo-1), fit of a mathematical model; same fit as a6; half-life ln2/(koff+ki) under continuous 660 nm light, at the high end of the range of light intensities used
[2] = molecular target: GFP-PIF^S-TCR (moxGFP-noF-PIF^S-TCRβ) (Aequorea victoria | A. thaliana | human) (UniProt Q8L5W7)
[3] = molecular target: GFP-PIF^S-TCR (moxGFP-noF-PIF^S-TCRβ) (Aequorea victoria | A. thaliana | human) (UniProt Q8L5W7); experiment: flow cytometry on cells + other: calcium influx (Indo-1), fit of a mathematical model; surface-bound DyLight650-PhyBt on GFP-PIF^S-TCR cells (90 s, 37 C, different PhyBt concentrations and continuous 660 nm intensities) and all calcium data fitted together by maximum likelihood; PhyBt modelled as dimers, off-rates of both steps set equal; parameters are for darkness
[4] = molecular target: GFP-PIF^S-TCR (moxGFP-noF-PIF^S-TCRβ) (Aequorea victoria | A. thaliana | human) (UniProt Q8L5W7); remark: listed apart in the source

PhyB tetramers (fluorescently labeled streptavidin-based tetramers of PhyB_(1-651)-Avitag-His6), sequence (P14713 1-651): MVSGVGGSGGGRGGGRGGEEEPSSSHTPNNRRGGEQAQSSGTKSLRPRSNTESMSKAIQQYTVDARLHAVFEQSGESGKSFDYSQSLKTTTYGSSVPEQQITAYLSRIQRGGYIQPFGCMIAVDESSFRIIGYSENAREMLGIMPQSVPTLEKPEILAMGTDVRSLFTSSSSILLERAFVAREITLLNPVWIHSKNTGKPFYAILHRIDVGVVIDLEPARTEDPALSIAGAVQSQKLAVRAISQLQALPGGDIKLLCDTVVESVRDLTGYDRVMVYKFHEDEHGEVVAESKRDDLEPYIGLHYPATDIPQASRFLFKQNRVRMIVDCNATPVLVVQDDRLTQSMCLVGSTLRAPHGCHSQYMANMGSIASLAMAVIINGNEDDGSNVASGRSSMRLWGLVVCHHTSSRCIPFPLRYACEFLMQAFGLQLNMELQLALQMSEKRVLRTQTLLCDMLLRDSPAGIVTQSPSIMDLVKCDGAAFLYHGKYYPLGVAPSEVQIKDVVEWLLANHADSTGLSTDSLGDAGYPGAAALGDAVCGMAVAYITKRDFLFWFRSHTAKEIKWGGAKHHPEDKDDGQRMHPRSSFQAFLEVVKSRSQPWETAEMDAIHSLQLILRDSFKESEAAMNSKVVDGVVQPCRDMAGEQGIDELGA
PhyB tetramers (fluorescently labeled streptavidin-based tetramers of PhyB_(1-651)-Avitag-His6), sequence (P22629 25-183): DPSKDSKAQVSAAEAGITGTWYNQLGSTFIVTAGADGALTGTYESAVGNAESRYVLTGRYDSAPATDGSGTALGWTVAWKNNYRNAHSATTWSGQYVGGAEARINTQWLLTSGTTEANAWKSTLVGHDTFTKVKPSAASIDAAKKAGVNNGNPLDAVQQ

PhyB tetramers (fluorescently labeled streptavidin-based tetramers of PhyB_(1-651)-Avitag-His6) (from UniProt P14713 1-651; P22629 25-183) (complex)
half-life of the PhyB ON-TCR complex, ln2/(koff+ki), under continuous 660 nm light [1]: 2 s
calcium influx under continuous 660 nm light of different intensities (dark to 32%) and different PhyBt concentrations; intensity threshold for a calcium response (% 660 nm intensity) [2]: 3
Kd [3]: 0.022 µM
Q = qon/qoff, association constant of multivalent binding step (darkness), dimensionless [3]: 11
half-life of PhyB ON-PIF-TCR complex (darkness), ln(2)/koff [3]: 40 s
qon, binding rate of receptor cross-linking (second, bivalent step) [3]: 0.19 s⁻¹
ongoing calcium response evoked by PhyBt(660) in the dark, then continuous 660 nm light of 2% to 32% intensity; intensity threshold to maintain the response (% 660 nm intensity) [4]: 3
